This passage reports abundance fitness results from the Human Domainome abundance scans (Beltran et al. 2025).

B1: POU domain, class 4, transcription factor 1, residues 266 to 347; numbered along this chain, Q01851 (parent)
chain: RELEAFAERFKQRRIKLGVTQADVGSALANLKIPGVGSLSQSTICRFESLTLSHNNMIALKPILQAWLEEAEGAQREKMNKP

± gives the uncertainty stated by the source.

In the data set the parent is B1. The experiment in a line: abundance fitness (aPCA) (normalised: wild type 0, dead -1); higher = more abundant; growth selection in yeast, the domain comes from the species named. As to conditions: Homo sapiens.
For RELEAFAERFKQRRIKLGVTSADVGSALANLKIPGVGSLSQSTICRFESLTLSHNNMIALKPILQAWLEEAEGAQREKMNKP, the abundance fitness is -0.09 ± 0.058.

RELEAFAERFKQRRIKLGVTKADVGSALANLKIPGVGSLSQSTICRFESLTLSHNNMIALKPILQAWLEEAEGAQREKMNKP: the abundance fitness amounted to 0.062 ± 0.092.

Regarding RELEAFAERFKQRRIKLGVTPADVGSALANLKIPGVGSLSQSTICRFESLTLSHNNMIALKPILQAWLEEAEGAQREKMNKP, the abundance fitness was -0.045 ± 0.065.

Take RELEAFAERFKQRRIKLGVTWADVGSALANLKIPGVGSLSQSTICRFESLTLSHNNMIALKPILQAWLEEAEGAQREKMNKP: the abundance fitness is -0.141 ± 0.063.

Turning to RELEAFAERFKQRRIKLGVTFADVGSALANLKIPGVGSLSQSTICRFESLTLSHNNMIALKPILQAWLEEAEGAQREKMNKP, the abundance fitness was -0.072 ± 0.24.

On to RELEAFAERFKQRRIKLGVTRADVGSALANLKIPGVGSLSQSTICRFESLTLSHNNMIALKPILQAWLEEAEGAQREKMNKP, for which the abundance fitness is -0.058 ± 0.041.

With RELEAFAERFKQRRIKLGVTNADVGSALANLKIPGVGSLSQSTICRFESLTLSHNNMIALKPILQAWLEEAEGAQREKMNKP, the abundance fitness was -0.516 ± 0.38.

Consider RELEAFAERFKQRRIKLGVTYADVGSALANLKIPGVGSLSQSTICRFESLTLSHNNMIALKPILQAWLEEAEGAQREKMNKP, for which the abundance fitness was -0.07 ± 0.1.

On to RELEAFAERFKQRRIKLGVTHADVGSALANLKIPGVGSLSQSTICRFESLTLSHNNMIALKPILQAWLEEAEGAQREKMNKP, for which the abundance fitness worked out at 0.006 ± 0.1.

As for RELEAFAERFKQRRIKLGVTIADVGSALANLKIPGVGSLSQSTICRFESLTLSHNNMIALKPILQAWLEEAEGAQREKMNKP, the abundance fitness came out at 0.022 ± 0.075.

Take RELEAFAERFKQRRIKLGVTCADVGSALANLKIPGVGSLSQSTICRFESLTLSHNNMIALKPILQAWLEEAEGAQREKMNKP: the abundance fitness is -0.083 ± 0.064.

On to RELEAFAERFKQRRIKLGVTMADVGSALANLKIPGVGSLSQSTICRFESLTLSHNNMIALKPILQAWLEEAEGAQREKMNKP, for which the abundance fitness was -0.111 ± 0.072.

In the case of RELEAFAERFKQRRIKLGVTEADVGSALANLKIPGVGSLSQSTICRFESLTLSHNNMIALKPILQAWLEEAEGAQREKMNKP, the abundance fitness is -0.023 ± 0.049.

For the variant RELEAFAERFKQRRIKLGVTVADVGSALANLKIPGVGSLSQSTICRFESLTLSHNNMIALKPILQAWLEEAEGAQREKMNKP, the abundance fitness was -0.083 ± 0.046.

Regarding RELEAFAERFKQRRIKLGVTAADVGSALANLKIPGVGSLSQSTICRFESLTLSHNNMIALKPILQAWLEEAEGAQREKMNKP, the abundance fitness was -0.044 ± 0.046.

As to RELEAFAERFKQRRIKLGVTTADVGSALANLKIPGVGSLSQSTICRFESLTLSHNNMIALKPILQAWLEEAEGAQREKMNKP, the abundance fitness was -0.072 ± 0.055.

Take RELEAFAERFKQRRIKLGWTQADVGSALANLKIPGVGSLSQSTICRFESLTLSHNNMIALKPILQAWLEEAEGAQREKMNKP: the abundance fitness was -0.016 ± 0.057.

With RELEAFAERFKQRRIKLGTTQADVGSALANLKIPGVGSLSQSTICRFESLTLSHNNMIALKPILQAWLEEAEGAQREKMNKP, the abundance fitness is -0.125 ± 0.068.

For RELEAFAERFKQRRIKLGYTQADVGSALANLKIPGVGSLSQSTICRFESLTLSHNNMIALKPILQAWLEEAEGAQREKMNKP, the abundance fitness was -0.027 ± 0.086.

Turning to RELEAFAERFKQRRIKLGVRQADVGSALANLKIPGVGSLSQSTICRFESLTLSHNNMIALKPILQAWLEEAEGAQREKMNKP, the abundance fitness was -0.087 ± 0.1.

For the variant RELEAFAERFKQRRIKLGVLQADVGSALANLKIPGVGSLSQSTICRFESLTLSHNNMIALKPILQAWLEEAEGAQREKMNKP, the abundance fitness was -0.078 ± 0.19.

For the variant RELEAFAERFKQRRIKLGVCQADVGSALANLKIPGVGSLSQSTICRFESLTLSHNNMIALKPILQAWLEEAEGAQREKMNKP, the abundance fitness turned out to be 0.008 ± 0.36.

As for RELEAFAERFKQRRIKLGVAQADVGSALANLKIPGVGSLSQSTICRFESLTLSHNNMIALKPILQAWLEEAEGAQREKMNKP, the abundance fitness is -0.052 ± 0.14.

On to RELEAFAERFKQRRIKLGVSQADVGSALANLKIPGVGSLSQSTICRFESLTLSHNNMIALKPILQAWLEEAEGAQREKMNKP, for which the abundance fitness was -0.117 ± 0.19.

On to RELEAFAERFKQRRIKLGVEQADVGSALANLKIPGVGSLSQSTICRFESLTLSHNNMIALKPILQAWLEEAEGAQREKMNKP, for which the abundance fitness was -0.124 ± 0.094.

As for RELEAFAERFKQRRIKLGVIQADVGSALANLKIPGVGSLSQSTICRFESLTLSHNNMIALKPILQAWLEEAEGAQREKMNKP, the abundance fitness was -0.725 ± 0.21.

For RELEAFAERFKQRRIKLGVVQADVGSALANLKIPGVGSLSQSTICRFESLTLSHNNMIALKPILQAWLEEAEGAQREKMNKP, the abundance fitness is -0.567 ± 0.28.

For RELEAFAERFKQRRIKLGVNQADVGSALANLKIPGVGSLSQSTICRFESLTLSHNNMIALKPILQAWLEEAEGAQREKMNKP, the abundance fitness is -0.261 ± 0.44.

For RELEAFAERFKQRRIKLGVTQAFVGSALANLKIPGVGSLSQSTICRFESLTLSHNNMIALKPILQAWLEEAEGAQREKMNKP, the abundance fitness was -0.208 ± 0.12.

For RELEAFAERFKQRRIKLGVTQAAVGSALANLKIPGVGSLSQSTICRFESLTLSHNNMIALKPILQAWLEEAEGAQREKMNKP, the abundance fitness is -0.009 ± 0.066.

On to RELEAFAERFKQRRIKLGVTQAEVGSALANLKIPGVGSLSQSTICRFESLTLSHNNMIALKPILQAWLEEAEGAQREKMNKP, for which the abundance fitness was 0.027 ± 0.048.

For RELEAFAERFKQRRIKLGVTQARVGSALANLKIPGVGSLSQSTICRFESLTLSHNNMIALKPILQAWLEEAEGAQREKMNKP, the abundance fitness was -0.173 ± 0.049.

For the variant RELEAFAERFKQRRIKLGVTQAGVGSALANLKIPGVGSLSQSTICRFESLTLSHNNMIALKPILQAWLEEAEGAQREKMNKP, the abundance fitness is -0.067 ± 0.045.
